In US20240309084A1 (Novartis, published 2024):
Like-named read-outs stand apart in the source and are kept apart here.

B2: GalNAc-labeled LDLR conjugate (LDLR193 (193-720)(N515Q)(N657Q)_SrtA_CHis) (receptor)
chain: not shown
modifications: C-terminal sortase A ligation to GGG-triGalNAc at the LPETGG motif
notes: also called GalNAc trimer-anti-LDLR protein conjugate
B3: recombinant extracellular domain of human ASGPR1 with N-terminal biotinylated Avitag (receptor, UniProt P07306 62-291, looked up)
chain: QNSQLQEELRGLRETFSNFTASTEAQVKGLSTQGGNVGRKMKSLESQLEKQQKDLSEDHSSLLLHVKQFVSDLRSLSCQMAALQGNGSERTCCPVNWVEHERSCYWFSRSGKAWADADNYCRLEDAHLVVVTSWEEQKFVQHHIGPVNTWMGLHDQNGPWKWVDGTDYETGFKNWRPEQPDDWYGHGLGGGEDCAHFTDDGRWNDDVCQRPYRWVCETELDKASQEPPLL
modifications: biotin on the N-terminal Avitag
notes: extracellular domain; also called hASBPR1; AGSPR1; not shown: N-terminal Avitag

Experiments:
[1] = molecular target: B3; assay: SPR, stepwise (single-cycle) injections of the bispecific Ab over immobilised hASGPR1
Description: (§1) ASGPR SPR experiments were performed on either Biacore T200 or Biacore 8K. The assay was optimized for Biacore SA chip in running buffer consisting of 20 mM HEPES, 300 mM NaCl, 2 mM CaCl₂), 0.01% tween-20, 2% DMSO, pH 7.4. Recombinant extracellular domain of human ASGPR1 with N-terminal biotinylated Avitag was diluted to 20 μg/mL in running buffer, and immobilized onto SA chip after it was preconditioned with at least four 60-second injections at 30 μL/min of 1 M NaCl/40 mM NaOH solution. Protein immobilization level varied from 500 RU to 3500 RU dependent on analytes' molecular weight, for targeted Rmax of 30 RUs. Direct binding of analytes to ASGR1 was observed when a dose response titration of analytes in 2% DMSO was flown over the immobilized protein. Data analysis was done on either Biacore T200 Evaluation Software or Biacore Insight Evaluation Software.

[2] = molecular target: T1, His-ASGPR1(62-291) (UniProt P07306 62-291); assay: SPR, ternary format; panel title: hASGPR1 Binding Immobilized Bispecific Ab Bound to hPCSK9
T1 construct: range 62-291; also called ASGPR1 (analyte of the sandwich SPR assay); not shown: His tag
T1 sequence (looked up): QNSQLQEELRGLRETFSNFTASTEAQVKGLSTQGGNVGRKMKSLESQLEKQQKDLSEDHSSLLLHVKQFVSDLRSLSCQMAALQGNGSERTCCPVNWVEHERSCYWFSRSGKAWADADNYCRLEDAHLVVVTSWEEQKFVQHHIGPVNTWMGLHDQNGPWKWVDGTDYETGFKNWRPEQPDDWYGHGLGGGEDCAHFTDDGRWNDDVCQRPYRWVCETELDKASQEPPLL

[3] = molecular target: T2, purified recombinant full length human PCSK9 with C-terminal biotinylated Avitag (human, UniProt Q8NBP7 31-692, biotin on the C-terminal Avi-tag); assay: SPR, independently immobilized PCSK9
T2 construct: Signal peptide removal and autocatalytic prodomain cleavage are not described for the construct; also called hPCSK9; full length hPCSK9; not shown: Avi-tag

[4] = molecular target: B3; assay: SPR, independently immobilized ASGPR
Description: as §1

[5] = molecular target: T2, purified recombinant full length human …; assay: SPR, 1:1 binding fit, stepwise injections over avi-PCSK9
[6] = molecular target: B2; assay: SPR, 1:1 fit, stepwise injections over avi_deglycosylated_ASGPR1
[7] = molecular target: T3, triGalNAc-PCSK9 conjugate 4 (GalNAc-labeled PCSK9) (human, UniProt Q8NBP7 31-692, triGalNAc with a short PEG linker on a single solvent exposed lysine (position not given)); assay: SPR, 1:1 binding fit, stepwise injections over ASGPR1; table under FIG. 16B
T3 construct: It is not clear whether the PCSK9 was biotinylated before conjugation; also called triGalNAc-hPCSK9 4; GalNAc trimer-PCSK9 protein conjugate; not shown: Avi-tag
Description: as §1

[8] = molecular target: T3, triGalNAc-PCSK9 conjugate 4 …; assay: as above; remark: listed apart in the source
Description: as §1

B1: anti-ASGPR-PCSK9 bispecific antibody (ASGPR_4F3_scFv-PCSK9_Fab_DANAPA_hIgG1_KiH) (bispecific antibody)
light: not shown
chain: not shown
heavy: QVQLVQSGAEVKKPGASVKVSCKASGYTFTSYYMHWVRQAPGQGLEWMGEISPFGGRTNYNEKFKSRVTMTRDTSTSTVYMELSSLRSEDTAVYYCARERPLYASDLWGQGTTVTVSSASTKGPSVFPLAPSSKSTSGGTAALGCLVKDYFPEPVTVSWNSGALTSGVHTFPAVLQSSGLYSLSSVVTVPSSSLGTQTYICNVNHKPSNTKVDKRVEPKSCDKTHTCPPCPAPELLGGPSVFLFPPKPKDTLMISRTPEVTCVVVAVSHEDPEVKFNWYVDGVEVHNAKTKPREEQYASTYRVVSVLTVLHQDWLNGKEYKCKVSNKALAAPIEKTISKAKGQPREPQVCTLPPSREEMTKNQVSLSCAVKGFYPSDIAVEWESNGQPENNYKTTPPVLDSDGSFFLVSKLTVDKSRWQQGNVFSCSVMHEALHNHYTQKSLSLSPGK
notes: also called ASGPR-PCSK9 bispecific antibody 5; bispecific ASGPR-PCSK9 Ab 5
B1 was tested, and the Kd [1] was 2.73 nM, the koff [1] was 0.000527 s⁻¹ and the kon [1] was 193000 M⁻¹ s⁻¹. For the same binder, the Kd [2] was 3.27 nM, the koff [2] was 5.93e-05 s⁻¹ and the kon [2] was 18200 M⁻¹ s⁻¹. The Kd [3] was 0.2 nM and the Kd [4] was 3 nM.

B2 showed a Kd [5] of 156 nM.

B3 showed a Kd [6] of 1.34 nM, a Kd [7] of 0.299 nM and a Kd [8] of 0.175 nM.
